Results from paper PMC12608037.

What was measured:
[1] = test system: YihW (CsqR) K-12 MG1655 (Escherichia coli K-12 MG1655); assay: EMSA; settings: 50 mM Tris-Cl (pH not stated), 100 mM KCl, 50% glycerol, 1 mM EDTA (1x); 0.5 pmol DNA, 2-24 pmol YihW; 30 or 37 C, 30 min; 5% PAGE in 1x TBE; scale: protein:DNA molar ratio for complete binding
[2] = test system: YihW (CsqR) Nissle 1917 (Escherichia coli Nissle 1917); assay: EMSA; settings: 50 mM Tris-Cl (pH not stated), 100 mM KCl, 50% glycerol, 1 mM EDTA (1x), 0.5 pmol DNA, 2-24 pmol YihW, 30 or 37 C, 30 min, 5% PAGE in 1x TBE, scale: protein:DNA molar ratio for complete binding

Substance	binding signal [1]	binding signal ([2]; 30 C, equal efficiency to Nissle fragment)	binding signal ([2]; 30 C)	binding signal ([2]; 37 C, some DNA free at 48x, weaker than K-12 fragment)
yihU/V intergenic region, K-12 MG1655	16	24		
yihU/V intergenic region, Nissle 1917	16		24	> 48
